Publication PMC5480393 (Cell, 2017)
Read-outs that look alike come from different tables or passages of the source.

Legend:
crystal structure [1] = molecular target: the molecule itself; test: crystal structure
crystal structure [2] = molecular target: the molecule itself; test: crystal structure; remark: listed apart in the source

B1: VR3 (red abalone VERL repeat 3 without the interdomain linker) (domain or fragment)
chain: DWDVYCSQDESIPAKFISRLVTSKDQALEKTEINCSNGLVPITQEFGINMMLIQYTRNELLDSPGMCVFWGPYSVPKNDTVVLYTVTARLKWSEGPPTNLSIQCYMPKSPVAPK
binding result (crystal structure [1]): binds

B2: mMBP-VR3 (mammalianized maltose-binding protein fusion of VERL repeat 3) (domain or fragment)
chain: DWDVYCSQDESIPAKFISRLVTSKDQALEKTEINCSNGLVPITQEFGINMMLIQYTRNELLDSPGMCVFWGPYSVPKNDTVVLYTVTARLKWSEGPPTNLSIQCYMPKSPVAPK
binding result (crystal structure [2]): binds
